# Measured values from patent US20240199740A1 (Ablynx, published 2024).
# T1: recombinant human CD123 protein (R&D Systems, 301-R3/CF) (human, UniProt P26951 19-305)
# T1 construct: Bought recombinant His-tagged extracellular domain of human CD123; also called recombinant CD123; in house biotinylated-CD123 recombinant protein; not shown: His tag of the bought protein
# T1 sequence: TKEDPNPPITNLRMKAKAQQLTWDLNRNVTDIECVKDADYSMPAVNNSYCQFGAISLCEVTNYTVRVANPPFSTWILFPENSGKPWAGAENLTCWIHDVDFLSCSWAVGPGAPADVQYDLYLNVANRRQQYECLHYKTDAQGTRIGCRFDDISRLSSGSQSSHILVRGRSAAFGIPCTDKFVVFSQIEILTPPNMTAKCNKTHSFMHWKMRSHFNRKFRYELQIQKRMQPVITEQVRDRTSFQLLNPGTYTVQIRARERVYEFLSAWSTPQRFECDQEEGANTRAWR
# T2: cynomolgus CD123 expressed on HEK Flp-In cells (cynomolgus)
# T2 construct: EHH61867.1; also called cyCD123; cyno CD123
# T2 chain: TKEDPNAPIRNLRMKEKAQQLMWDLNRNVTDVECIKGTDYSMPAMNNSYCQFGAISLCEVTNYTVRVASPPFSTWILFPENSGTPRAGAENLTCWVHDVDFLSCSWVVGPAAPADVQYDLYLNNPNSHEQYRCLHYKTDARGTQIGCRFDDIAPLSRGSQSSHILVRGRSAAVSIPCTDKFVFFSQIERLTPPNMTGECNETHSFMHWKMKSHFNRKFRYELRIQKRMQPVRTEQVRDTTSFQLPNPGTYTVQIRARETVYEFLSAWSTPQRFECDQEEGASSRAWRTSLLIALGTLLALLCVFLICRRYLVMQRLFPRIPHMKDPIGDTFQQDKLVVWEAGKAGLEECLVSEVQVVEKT
# B1: T017000129 (bispecific antibody)
# chain: DVQLVESGGGLVQPGGSLRLSCVASGDVHKINFLGWYRQAPGKEREKVAHISIGDQTDYADSAKGRFTISRDESKNMVYLQMNSLKPEDTAVYFCRAFSRIYPYDYWGQGTLVTVSSGGGGSGGGGSGGGGSGGGGSGGGGSGGGGSGGGGSEVQLVESGGGLVQAGDSLRLSCAASGRTFSSYAMGWFRQAPGKEREFVAAISWSDGSTYYADSVKGRFTISRDNAKNTVYLQMNSLKPEDTAVYYCAADLTSTNPGSYIYIWAYDYWGQGTLVTVSSA
# notes: Control: anti-TCR Nanobody linked to the irrelevant anti-RSV Nanobody; also called irrelevant multivalent polypeptide T017000129
# B2: T017000135 (bispecific antibody)
# chain: DVQLVESGGGLVQAGGPLRLSCAASGRTFSSYVMGWFRQAPGKEREFVAAIYWSNGKTQYTDSVKGRFTISGDNAKNTVYLQMNSLNPEDTAVYYCVADKDETGFRTLPIAYDYWGQGTLVTVSSGGGGSGGGGSGGGGSGGGGSGGGGSGGGGSGGGGSEVQLVESGGGLVQPGGSLRLSCVASGDVHKINFLGWYRQAPGKEREKVAHISIGDQTDYADSAKGRFTISRDESKNMVYLQMNSLKPEDTAVYFCRAFSRIYPYDYWGQGTLVTVSSGGGGSGGGGSGGGGSGGGGSGGGGSGGGGSGGGGSEVQLVESGGGLVQAGGSLRLSCAASGITSKINDMGWYRQTPGNYREWVASITATGTTNYRDSVKGRFTISRDNAKSTVYLQMNSLKPEDTTVYYCNTFPPISNFWGQGTLVTVSSA
# B3: T017000116 (bispecific antibody)
# chain: EVQLVESGGGLVQAGGSLRLSCAASGITSKINDMGWYRQTPGNYREWVASITATGTTNYRDSVKGRFTISRDNAKSTVYLQMNSLKPEDTTVYYCNTFPPISNFWGQGTLVTVSSGGGGSGGGGSGGGGSGGGGSGGGGSGGGGSGGGGSEVQLVESGGGLVQAGGPLRLSCAASGRTFSSYVMGWFRQAPGKEREFVAAIYWSNGKTQYTDSVKGRFTISGDNAKNTVYLQMNSLNPEDTAVYYCVADKDETGFRTLPIAYDYWGQGTLVTVSSGGGGSGGGGSGGGGSGGGGSGGGGSGGGGSGGGGSEVQLVESGGGLVQPGGSLRLSCVASGDVHKINFLGWYRQAPGKEREKVAHISIGDQTDYADSAKGRFTISRDESKNMVYLQMNSLKPEDTAVYFCRAFSRIYPYDYWGQGTLVTVSS
# notes: Multispecific Nanobody polypeptide expressed in Pichia; also called A0110056A10-35GS-A0110055F03-35GS-T0170056G05-FLAG3-HIS6; not shown: C-terminal FLAG3-HIS6 tag
# B4: T017000128 (bispecific antibody)
# chain: DVQLVESGGGLVQPGGSLRLSCVASGDVHKINFLGWYRQAPGKEREKVAHISIGDQTDYADSAKGRFTISRDESKNMVYLQMNSLKPEDTAVYFCRAFSRIYPYDYWGQGTLVTVSSGGGGSGGGGSGGGGSGGGGSGGGGSGGGGSGGGGSEVQLVESGGGLVQAGGSLRLSCAASGITSKINDMGWYRQTPGNYREWVASITATGTTNYRDSVKGRFTISRDNAKSTVYLQMNSLKPEDTTVYYCNTFPPISNFWGQGTLVTVSSA
# notes: Multispecific Nanobody polypeptide expressed in Pichia
# B5: T017000138 (bispecific antibody)
# chain: DVQLVESGGGLVQPGGSLRLSCVASGDVHKINFLGWYRQAPGKEREKVAHISIGDQTDYADSAKGRFTISRDESKNMVYLQMNSLKPEDTAVYFCRAFSRIYPYDYWGQGTLVTVSSGGGGSGGGGSGGGGSGGGGSGGGGSGGGGSGGGGSEVQLVESGGGLVQAGGSLRLSCAASGITSKINDMGWYRQTPGNYREWVASITATGTTNYRDSVKGRFTISRDNAKSTVYLQMNSLKPEDTTVYYCNTFPPISNFWGQGTLVTVSSGGGGSGGGGSGGGGSGGGGSGGGGSGGGGSGGGGSEVQLVESGGGLVQAGGPLRLSCAASGRTFSSYVMGWFRQAPGKEREFVAAIYWSNGKTQYTDSVKGRFTISGDNAKNTVYLQMNSLNPEDTAVYYCVADKDETGFRTLPIAYDYWGQGTLVTVSSA
# B6: T017000138 (bispecific antibody)
# chain: B5 chain
# notes: as for B4
# Columns and labels:
# [1] = biological target: T3, cynomolgus TCR/CD3 expressed on cells (cynomolgus); test: flow cytometry competition, HSC-F cells, competitor T017000099 (500 nM)
# T3 construct: whole, on cells; Native complex with CD3 chains; the cell type is named under assay or readout; also called cyno TCR/CD3; CD3/TCR expressed on HSC-F
# Method: Cells were washed and incubated with Propidium Iodine to stain for dead cells, which are then removed during the gating procedure. The cells were then analysed via a BD FACSArray. First a P1 population which represented more than 80% of the total cell population was selected based on FSC-SSC distribution. In this gate, 10000 cells were counted during acquisition. From this population the PI+ cells (dead cells) were excluded and the median APC value was calculated.
# [2] = biological target: T4, human CD123 expressed on cells (human, UniProt P26951 19-378); test: cell-based or functional assay
# [3] = biological target: T4, human CD123 expressed on cells; test: cell-based or functional assay; remark: listed apart in the source
# [4] = biological target: T4, human CD123 expressed on cells; test: cell-based or functional assay; remark: listed apart in the source
# [5] = biological target: T4, human CD123 expressed on cells; test: cell-based or functional assay; remark: listed apart in the source
# [6] = biological target: T1, recombinant human CD123 protein (R&D …); test: SPR (ProteOn XPR36), CD123 immobilized
# Method: Binding affinities for the CD123/TCR multispecific polypeptides were evaluated by means of an SPR based affinity determination on a ProteOn XPR36 instrument. […] The dissociation time of the 1000 nM sample was 15 min. Flow rate was 45 μl/min and ProteOn running buffer (PBS, pH 7.4, 0.005% Tween 20) was used as running buffer. Evaluation of the association/dissociation data was performed by fitting a 1:1 interaction model (Langmuir binding model).
# [7] = biological target: T4, human CD123 expressed on cells; test: flow cytometry competition, CHO Flp-In huCD123 cells, competitor A0110056A10-Alexa647 (0.9 nM)
# Method: (§1) Next to binding to the MOLM-13 and CHO Flp-In huCD123 cells, binding to cyno CD123 transfected HEK Flp-In cells was assessed.
# [8] = biological target: T3, cynomolgus TCR/CD3 expressed on cells; test: cell-based or functional assay
# [9] = biological target: T3, cynomolgus TCR/CD3 expressed on cells; test: cell-based or functional assay; remark: listed apart in the source
# [10] = biological target: T2, cynomolgus CD123 expressed on HEK …; test: flow cytometry competition, HEK Flp-In cyCD123 cells, competitor A0110056A10-Alexa647 (0.9 nM)
# Method: as §1
# [11] = biological target: T4, human CD123 expressed on cells; test: flow cytometry competition, MOLM-13 cells, competitor A0110056A10-Alexa647 (0.4 nM)
# Method: as §1
# human CD123 [12] = biological target: T5, human CD123 (human, UniProt P26951 19-378); test: cell-based or functional assay
# human CD123 [13] = biological target: T5, human CD123; test: cell-based or functional assay; remark: listed apart in the source
Binder,IC50 [1],"EC50 (M), human IL-6 secretion during human T cell mediated killing of CD123 transfected adherent target cells [2]","% lysis, redirected human T cell mediated killing of KG1a cells, flow cytometry, E:T 10:1 [3]","EC50 (M), redirected human T cell mediated killing of KG1a cells, flow cytometry, E:T 10:1 [3]","EC50 (M), IFN-γ secretion by human T cells during killing of CD123 transfected adherent target cells [4]","% lysis, redirected human T cell mediated killing of MOLM-13 cells, flow cytometry, E:T 10:1 [5]","EC50 (M), redirected human T cell mediated killing of MOLM-13 cells, flow cytometry, E:T 10:1 [5]",IC50 [7],"% lysis, redirected cyno T cell mediated killing of MOLM-13 cells, flow cytometry, E:T 10:1 [8]","EC50 (M), redirected cyno T cell mediated killing of MOLM-13 cells, flow cytometry, E:T 10:1 [8]","% lysis, redirected cyno T cell mediated killing of KG1a cells, flow cytometry [9]","EC50 (M), redirected cyno T cell mediated killing of KG1a cells, flow cytometry [9]",IC50 [10],IC50 [11],"EC50 (M), IFN-γ secretion by cynomolgus T cells during killing of CD123 transfected adherent target cells [4]",also measured
B1,520 nM,–,–,–,–,–,–,–,–,–,–,–,–,–,–,–
B2,–,5.9e-10 M,18%,5.1e-11 M,2e-09 M,33%,1.1e-11 M,–,–,–,–,–,–,–,–,–
B3,–,9.6e-09 M,5%,4.2e-10 M,8.1e-09 M,17%,2.2e-10 M,1.6 nM,15%,3.9e-10 M,14%,3.7e-10 M,5.6 nM,1.8 nM,–,Kd [6]: 0.88 nM
B4,630 nM,6.9e-11 M,28%,8.7e-10 M,8.6e-11 M,20%,1.5e-10 M,5.8 nM,50%,1.8e-10 M,38%,3.2e-10 M,31 nM,3.1 nM,1e-10 M,–
B5,–,–,–,–,–,–,–,–,–,–,–,–,–,–,–,"EC50 (M), redirected cynomolgus T cell mediated killing of MOLM-13 cells, flow cytometry, E:T 10:1 (human CD123 [12]): 1.5e-10 M; EC50 (M), redirected human T cell mediated killing of MOLM-13 cells, flow cytometry, E:T 10:1 (human CD123 [12]): 1.1e-10 M; % lysis, redirected cynomolgus T cell mediated killing of KG1a cells, flow cytometry, E:T 10:1 (human CD123 [13]): 21%; % lysis, redirected human T cell mediated killing of KG1a cells, flow cytometry, E:T 10:1 (human CD123 [13]): 64%; EC50 (M), redirected cynomolgus T cell mediated killing of KG1a cells, flow cytometry, E:T 10:1 (human CD123 [13]): 2.8e-11 M; EC50 (M), redirected human T cell mediated killing of KG1a cells, flow cytometry, E:T 10:1 (human CD123 [13]): 1.6e-10 M"
B6,440 nM,3.8e-11 M,24%,2.8e-10 M,4e-10 M,22%,2.3e-11 M,3.6 nM,47%,1.7e-11 M,38%,8.8e-11 M,12 nM,3.5 nM,8.7e-10 M,–
